# According to patent publication US20240398993A1, “SMALL MOLECULE-REGULATED GENE EXPRESSION SYSTEM” (Outpace Bio, Inc., priority 2021, published 2024):
# “Also recorded” adds a separate entry of the source.
# B1: p65: transcriptional activation domain fused to DNCR2 (SEQ ID NO: 51) (protein)
# chain: SSDEEEARELIERAKEAAERAQEAAERTGDPRVRELARELKRLAQEAAEEVKRDPSSSDVNEALKLIVEAIEAAVDALEAAERTGDPEVRELARELVRLAVEAAEEVQRNPSSSDVNEALHSIVYAIEAAIFALEAAERTGDPEVRELARELVRLAVEAAEEVQRNPSSRNVEHALMRIVLAIYLAEENLREAEESGDPEKREKARERVREAVERAEEVQRDPSGWLNHSGGGSGVDGSPKKKRKVGSVLPQAPAPAPAPAMVSALAQAPAPVPVLAPGPPQAVAPPAPKPTQAGEGTLSEALLQLQFDDEDLGALLGNSTDPAVFTDLASVDNSEFQQLLNQGIPVAPHTTEPMLMEYPEAITRLVTGAQRPPDPAPAPLGAPGLPNGLLSGDEDFSSIADMDFSALL
# modifications: Synthetic polypeptide DNCR2-p65mini
# B2: p65-HSF1: transcriptional activation domain of all-human components fused to DNCR2 (SEQ ID NO: 52) (protein)
# chain: SSDEEEARELIERAKEAAERAQEAAERTGDPRVRELARELKRLAQEAAEEVKRDPSSSDVNEALKLIVEAIEAAVDALEAAERTGDPEVRELARELVRLAVEAAEEVQRNPSSSDVNEALHSIVYAIEAAIFALEAAERTGDPEVRELARELVRLAVEAAEEVQRNPSSRNVEHALMRIVLAIYLAEENLREAEESGDPEKREKARERVREAVERAEEVQRDPSGWLNHSGGGSGVDGSPKKKRKVGSVLPQAPAPAPAPAMVSALAQAPAPVPVLAPGPPQAVAPPAPKPTQAGEGTLSEALLQLQFDDEDLGALLGNSTDPAVFTDLASVDNSEFQQLLNQGIPVAPHTTEPMLMEYPEAITRLVTGAQRPPDPAPAPLGAPGLPNGLLSGDEDFSSIADMDFSALLSGSGGFSVDTSALLDLFSPSVTVPDMSLPDLDSSLASIQELLSPQEPPRPPEAENSSPDSGKQLVHYTAQPLFLLDPGSVDTGSNDLPVLFELGEGSYFSEGDGFAEDPTISLLTGSEPPKAKDPTVS
# modifications: Synthetic polypeptide DNCR2-p65mini-HSF1
# B3: ANR-SPOP: E3 ligase SPOP fused to the apo-NS3a reader ANR, SEQ ID NO: 157, expressed from IPV18 or TFV23 (protein)
# chain: GELDELVYLLDGPGYDPIHSDVVTRGGSHLFNFSGSSGGSGVNISGQNTMNMVKVPECRLADELGGLWENSRFTDCCLCVAGQEFQAHKAILAARSPVFSAMFEHEMEESKKNRVEINDVEPEVFKEMMCFIYTGKAPNLDKMADDLLAAADKYALERLKVMCEDALCSNLSVENAAEILILADLHSADQLKTQAVDFINYHASDVLETSGWKSMVVSHPHLVAEAYRSLASAQCPFLGPPRKRLKQS
# modifications: Synthetic polypeptide ANR-SPOP
# B4: ZFHIV2: zinc finger DNA binding domain fused to NS3a (NS3a-ZFHIV2, SEQ ID NO: 71) (protein)
# chain: KKKGSVVIVGRINLSGDTAYAQQTRGEEGCQETSQTGRDKNQVEGEVQIVSTATQTFLATSINGVLWTVYHGAGTRTIASPKGPVTQMYTNVDKDLVGWQAPQGSRSLTPCTCGSSDLYLVTRHADVIPVRRRGDSRGSLLSPRPISYLKGSAGGPLLCPAGHAVGIFRAAVSTRGVAKAVDFIPVESLETTMRSPGSGAAASGGGGSGGGGSGGTPPHERPFQCRICMRNFSNNAMLVRHTRTHTGEKPFQCRICMRNFSLSQTLQRHLRTHTGEKPFQCRICMRNFSMQGNLSRHLKTHLRGS
# modifications: Synthetic polypeptide NS3a-ZFHIV2
# How the values were obtained:
# HEK293 cells = assay: Danoprevir-induced EGFP reporter expression in transduced HEK293 cells, flow cytometry; format: cell-based
# Jurkat cells = assay: Danoprevir-induced GFP/EGFP reporter expression in transduced Jurkat cells, flow cytometry; format: cell-based; conditions: for induced GFP expression (gMFI): 500 nM danoprevir 24 hours, ZF DBD-NS3a / DNCR2-TAD panel, YB_TATA minimal promoter, FIG. 11
# [1] = titration of danoprevir, IPV16/TFV1 versus IPV16/TFV23, FIG. 18
molecule,measurement,setting,value
"CC(C)(C)OC(=O)N[C@H]1CCCCC/C=C\[C@@H]2C[C@@]2(C(=O)NS(=O)(=O)C2CC2)NC(=O)[C@@H]2C[C@@H](OC(=O)N3Cc4cccc(F)c4C3)CN2C1=O [danoprevir, (2R,6S,12Z,13aS,14aR,16aS)-14a-[(Cyclopropylsulfonyl)carbamoyl]-6-({[(2-methyl-2-propanyl)oxy]carbonyl}amino)-5,16-dioxo-1,2,3,5,6,7,8,9,10,11,13a,14,14a,15,16,16a-hexadecahydrocyclopropa[e]pyrrolo[1,2-a][1,4]diazacyclopentadecin-2-yl 4-fluoro-1,3-dihydro-2H-isoindole-2-carboxylate, reference compound]",danoprevir EC50 of EGFP expression,HEK293 cells; [1],equivalent
same,maximal EGFP expression levels,HEK293 cells; [1],equivalent
B1,induced GFP expression (gMFI),Jurkat cells,very weak
B2,induced GFP expression (gMFI),Jurkat cells,moderate induction levels
B3,"maximal danoprevir-induced EGFP expression, element expressed inducibly from the inducible promoter vector","HEK293 cells; 100 nM danoprevir, HEK293 cells, plot 1725",reduced the maximal danoprevir-induced EGFP expression
same,"danoprevir-induced EGFP expression, element expressed from the transcription factor vector","HEK293 cells; 100 nM danoprevir, HEK293 cells, plot 1730",maintaining high danoprevir-induced expression
same,"background EGFP expression level, fold lower than the system without ANR-SPOP","HEK293 cells; DMSO, IPV16/TFV23 versus IPV16/TFV1, plot 1800",about 3 times
same,"background (leaky) EGFP expression, DMSO","HEK293 cells; HEK293 cells, compared to wild type cells, FIG. 16-18",effectively removed any leaky background expression of EGFP; also recorded: indistinguishable from wild type HEK293 cells
B4,induced GFP expression (gMFI),Jurkat cells,highest induced GFP levels
same,"induction of GFP expression (gMFI), 12×RE versus 6×RE","Jurkat cells; DNCR2-VPRmini, FIG. 12",lower induction
same,"induction of GFP expression (gMFI), leucine zipper (LZ) between NS3a and ZF versus direct fusion","Jurkat cells; DNCR2-VPRmini, TFV19, TFV20, FIG. 12",higher maximal induction
